# Assay results as given in the RNAGym collection of RNA variant scans (doi:10.7554/elife.80360).
# B1: Hairpin Ribozyme (parent)
# chain: GUCCUCUUUCACGUGCGCGUGAAAGAGAGAAGUGAACCAGAGAAACACACGUUGUGGUAUAUUACCUGGUA
# Variants of: B1
# Experiment: self-cleavage, relative activity (ratio to wild type); higher = more cleavage; co-transcriptional
row,Variant,self-cleavage
1,GUCCUCUUUCACGUGCGCGUGAAAGAGAGAAGUGAACCAGAGAAACACACAUUGUGGUAUAUUACCAGGUA [G51A U67A],0.291
2,GUCCUCUUUCACGUGCGCGUGAAAGAGAGAAGUGAACCAGAGACACACACGUUGUGGUAUAUAACCUGGUA [A44C U63A],0.128
3,GUCCUCUUUCACGUGCGCGUGAAAGAGAGAAGUGAACCAGAGAAACACUCGGUGUGGUAUAUUACCUGGUA [A49U U52G],0.364
4,GUCCUCUUUCACGUGCGCGUGAAAGAGAGUAGAGAACCAGAGAAACACACGUUGUGGUAUAUUACCUGGUA [A30U U33A],0.0677
5,GUCCUCUUUCACGUGCGCGUGAAAGAGAGAAGUGAACCAGAGAAACACACGUUGUGUUAUAUCACCUGGUA [G57U U63C],0.146
6,GUCCUCUUUCACGUGCGCGUUAAAGAGAGAAGUGAACCAGAGAAACACACGUUGUGGUAUUUUACCUGGUA [G21U A61U],0.202
7,GUCCUCUUUCAAGUGCGCGUGAAAGCGAGAAGUGAACCAGAGAAACACACGUUGUGGUAUAUUACCUGGUA [C12A A26C],0.393
8,GUCCUCUAUCACGUGCGCGUGAAAGAGAGAAGUGAACCACAGAAACACACGUUGUGGUAUAUUACCUGGUA [U8A G40C],0.156
9,GUCCUCUUUCACGUGCGCGUGAUAGAGAGAAGUGAACCAGAGAAACACACGUUGUGGUAUCUUACCUGGUA [A23U A61C],0.126
10,GUCCUCUGUGACGUGCGCGUGAAAGAGAGAAGUGAACCAGAGAAACACACGUUGUGGUAUAUUACCUGGUA [U8G C10G],0.676
11,GUCCUCUAUCACGUGCGCGUGAAAGAGAGAAGUGAACCAGAGAAUCACACGUUGUGGUAUAUUACCUGGUA [U8A A45U],0.198
12,GUCCUCUUUCACGUGCGCGUGAAAGCGAGAAGUGAACCAGAGAAACACACGUUGUGGUAUACUACCUGGUA [A26C U62C],0.213
13,GUCCUCUUUCACGUGCGCGUGAAAGAGAGAAGUGUACCAGAAAAACACACGUUGUGGUAUAUUACCUGGUA [A35U G42A],0.181
14,GUCCUCUUUCCCGUGCGCGUGAAAGAGAGAAGUGAACCAGAGAAACACACGUUGUGGUAUACUACCUGGUA [A11C U62C],0.278
15,GUCCUCUUUCACGUGCGCGUCAAAGAGAGAAGUGAACCAGAGAGACACACGUUGUGGUAUAUUACCUGGUA [G21C A44G],0.194
16,GUCCUCUUUCACGUGCGCGUGAAAGAGAGAAGUGAACCAGAGAAAUACACGUUGUGGUAUAUUACGUGGUA [C46U C66G],0.146
17,GUCCUCUUUCACGUGCGCCUGAAAGAGAGAAGUGAACCAGAGAAACACACGUUGUGGUACAUUACCUGGUA [G19C U60C],0.984
18,GUCCUCUUUUACGUACGCGUGAAAGAGAGAAGUGAACCAGAGAAACACACGUUGUGGUAUAUUACCUGGUA [C10U G15A],0.722
19,GUCCUCUUUCACGUGCGCGUGAAAGCGAGAAGUGAACCAGAGAAACACACGUUGUGGUAUAUUACCUGAUA [A26C G69A],0.327

row,Variant,self-cleavage
1,GUCCUCUUUCACGUGCGCGUGAAAGAGAGAAGUGAACCAGAGAAACACACGUUGUGGUCUAUUACCUAGUA [A59C G68A],0.124
2,GUCCUCUUUCACGUGCGCGUGAAAGAGAGAAGUGAUCCAGAGAAACACACGAUGUGGUAUAUUACCUGGUA [A36U U52A],0.303
3,GUCCUCUUUCACGUCCGCGUGAAAGAGAGAAGUGAACCAGAGAAACACACGAUGUGGUAUAUUACCUGGUA [G15C U52A],1.19
4,GUCCUCUUUCACGUGCCCGUGAAUGAGAGAAGUGAACCAGAGAAACACACGUUGUGGUAUAUUACCUGGUA [G17C A24U],0.73
5,GACCUCUUUCACGUGCGCAUGAAAGAGAGAAGUGAACCAGAGAAACACACGUUGUGGUAUAUUACCUGGUA [U2A G19A],0.216
6,GUCCUCCUUCACGUGCGCGUGAAAGAGAGAAGUGAACCAGAGAAACACACGUUGGGGUAUAUUACCUGGUA [U7C U55G],0.344
7,GUCCUCUUUCACGUGCGCGUGAAAGAGAGAAGUGAACCAGAGAAACACACCUUGUGGUAUAUUACCUGGUA [G51C],0.876
8,GUCCUCUUUCACGUGCGCGUGAAUGAGAUAAGUGAACCAGAGAAACACACGUUGUGGUAUAUUACCUGGUA [A24U G29U],0.0631
9,GUCCUAUUUCACGUGCGCGUGAAAGAGAGAAGUGAACCAGAGAAACACACGUCGUGGUAUAUUACCUGGUA [C6A U53C],0.517
10,GUCCUCUUUCACGUGCGCGUGAAAGAGAGAAGUGUACCAGAGAAACACACGUUUUGGUAUAUUACCUGGUA [A35U G54U],0.455
11,GUCCUCUUUCACGUGCGCGUGAAAGAGGGAAGUGAACCAGAGAAACACACGUUGUGGCAUAUUACCUGGUA [A28G U58C],0.791
12,GUCCUCUUUCACGUGCGCGUGAAAAAGAGAAGUGAACCAGAGAAACACACGUUGUGGUAUAUUGCCUGGUA [G25A A64G],0.469
13,GUCCUCUUUCACGUGCGCGUGAAAGACAGAAGUGAACCAGAGAAACACACGUUGUGAUAUAUUACCUGGUA [G27C G57A],0.15
14,GUCCUCUUUCACGUGCGUGUGAACGAGAGAAGUGAACCAGAGAAACACACGUUGUGGUAUAUUACCUGGUA [C18U A24C],1.21
15,GUCCUCUUUCACGUUCGCGUGAAAGAGAGAAGUGAACCAGAGAAACACACGUUGUGGUAUAUUACCUGGUA [G15U],1.08
16,GUCCUCUUUCACGUGCGCGUGAAAGAGAGAAGUUAACCAGAGAAACACACGGUGUGGUAUAUUACCUGGUA [G34U U52G],0.896
17,GUCCUCUGUCACGUGCGCGUGAAAGAGAGAAGUGAACCAGAGAAACACACGUUGUGGUAUAUUCCCUGGUA [U8G A64C],0.0997
18,GUCUUCUUUCACGUGCGCGUGAAAGAGAGAAGUGAACCAGAGAAACACACGUUGUGGUAUAUUCCCUGGUA [C4U A64C],0.181
19,GUCCUCUUUCACGUGCACGUGAAAGAGAGAAGUGAGCCAGAGAAACACACGUUGUGGUAUAUUACCUGGUA [G17A A36G],1.17
